Blank lines part the entries; values can stand above or below the binder they belong to.
Experiments:
[1] = target: T1, human PD-1-Fc (R and D systems, Minneapolis, Minn.) (human, UniProt Q15116 25-167); test: plate ELISA on human PD-1-Fc; apparent KD
T1 construct: bought; also called hPD-1-Fc; hPD-1; not shown: Fc part of the bought fusion

[2] = target: T1, human PD-1-Fc (R and D systems, …); test: plate ELISA on human PD-1-Fc; reference A1.5
[3] = target: T2, J43v2 mIgG2a; test: bacterial display clone with DyLight 650 labeled J43v2 m2a
T2 construct: also called J43 m2a; J43v2 m2a
T2 sequence (VH, as listed by the source, chain 1 of 2): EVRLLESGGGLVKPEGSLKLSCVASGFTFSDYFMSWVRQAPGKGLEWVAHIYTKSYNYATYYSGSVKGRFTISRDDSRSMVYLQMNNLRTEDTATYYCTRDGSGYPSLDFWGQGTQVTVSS
T2 sequence (VL, as listed by the source, chain 2 of 2): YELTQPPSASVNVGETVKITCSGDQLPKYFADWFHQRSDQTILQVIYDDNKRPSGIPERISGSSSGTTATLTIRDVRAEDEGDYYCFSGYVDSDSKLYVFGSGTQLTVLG

T1 sequence (Q15116 25-167 limits assumed): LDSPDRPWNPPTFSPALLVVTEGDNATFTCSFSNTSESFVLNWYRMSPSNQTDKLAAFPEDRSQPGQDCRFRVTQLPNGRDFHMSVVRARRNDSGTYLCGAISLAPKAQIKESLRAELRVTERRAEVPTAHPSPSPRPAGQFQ

B1: PD-1 1.5 PD01 2001 (antibody, human IgG4 S228P, kappa)
heavy: not shown
light: QGQSGQGAMSGCSWSAFCPYLAGGGSSGGSISSGLLSGRSDNHGGGSDIQLTQSPSSLSASVGDRVTITCRASESVDAYGISFMNWFQQKPGKAPKLLIYAASNQGSGVPSRFSGSGSGTDFTLTISSMQPEDFATYYCQQSKDVPWTFGQGTKLEIKRTVAAPSVFIFPPSDEQLKSGTASVVCLLNNFYPREAKVQWKVDNALQSGNSQESVTEQDSKDSTYSLSSTLTLSKADYEKHKVYACEVTHQGLSSPVTKSFNRGEC
- Kd [1]: 348 nM
- Masking Efficiency [2]: 193

B3: PD-1 1.5 PD005 2001 (antibody, human IgG4 S228P, kappa)
heavy: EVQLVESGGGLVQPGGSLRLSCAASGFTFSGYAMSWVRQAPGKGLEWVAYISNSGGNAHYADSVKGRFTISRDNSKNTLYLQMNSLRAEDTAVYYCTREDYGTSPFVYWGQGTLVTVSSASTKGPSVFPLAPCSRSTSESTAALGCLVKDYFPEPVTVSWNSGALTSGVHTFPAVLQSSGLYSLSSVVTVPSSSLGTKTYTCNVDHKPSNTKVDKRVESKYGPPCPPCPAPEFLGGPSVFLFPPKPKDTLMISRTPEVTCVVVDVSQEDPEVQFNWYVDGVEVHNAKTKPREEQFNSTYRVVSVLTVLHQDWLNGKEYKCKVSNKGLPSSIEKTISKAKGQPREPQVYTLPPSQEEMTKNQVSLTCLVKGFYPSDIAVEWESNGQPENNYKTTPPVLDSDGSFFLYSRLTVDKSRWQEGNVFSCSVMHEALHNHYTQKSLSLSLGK
light: QGQSGQGMLVCSLQPTAMCERVGGGSSGGSISSGLLSGRSDNHGGGSDIQLTQSPSSLSASVGDRVTITCRASESVDAYGISFMNWFQQKPGKAPKLLIYAASNQGSGVPSRFSGSGSGTDFTLTISSMQPEDFATYYCQQSKDVPWTFGQGTKLEIKRTVAAPSVFIFPPSDEQLKSGTASVVCLLNNFYPREAKVQWKVDNALQSGNSQESVTEQDSKDSTYSLSSTLTLSKADYEKHKVYACEVTHQGLSSPVTKSFNRGEC
- Kd [1]: 68 nM
- Masking Efficiency [2]: 38

B5: PD-1 1.5 PD022 2001 (antibody, human IgG4 S228P, kappa)
heavy: not shown
light: QGQSGQGFYCTYLVSLTCHPQGGGSSGGSISSGLLSGRSDNHGGGSDIQLTQSPSSLSASVGDRVTITCRASESVDAYGISFMNWFQQKPGKAPKLLIYAASNQGSGVPSRFSGSGSGTDFTLTISSMQPEDFATYYCQQSKDVPWTFGQGTKLEIKRTVAAPSVFIFPPSDEQLKSGTASVVCLLNNFYPREAKVQWKVDNALQSGNSQESVTEQDSKDSTYSLSSTLTLSKADYEKHKVYACEVTHQGLSSPVTKSFNRGEC
- Kd [1]: 41 nM
- Masking Efficiency [2]: 23

B6: PD-1 1.5 PD010 2001 (antibody, human IgG4 S228P, kappa)
heavy: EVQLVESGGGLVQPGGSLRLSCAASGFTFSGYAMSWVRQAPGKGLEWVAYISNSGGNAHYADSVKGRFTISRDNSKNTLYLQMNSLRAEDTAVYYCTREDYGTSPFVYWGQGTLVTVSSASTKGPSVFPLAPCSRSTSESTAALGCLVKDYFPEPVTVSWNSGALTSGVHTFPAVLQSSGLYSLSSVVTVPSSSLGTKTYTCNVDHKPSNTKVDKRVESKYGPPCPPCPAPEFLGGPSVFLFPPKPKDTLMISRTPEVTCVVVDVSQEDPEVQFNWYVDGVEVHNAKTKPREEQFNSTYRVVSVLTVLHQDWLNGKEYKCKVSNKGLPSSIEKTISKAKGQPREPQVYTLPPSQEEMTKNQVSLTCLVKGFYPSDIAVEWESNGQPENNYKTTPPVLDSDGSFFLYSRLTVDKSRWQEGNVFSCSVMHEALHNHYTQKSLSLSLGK
light: QGQSGQGGLCSWYLSSSGLCVDGGGSSGGSISSGLLSGRSDNHGGGSDIQLTQSPSSLSASVGDRVTITCRASESVDAYGISFMNWFQQKPGKAPKLLIYAASNQGSGVPSRFSGSGSGTDFTLTISSMQPEDFATYYCQQSKDVPWTFGQGTKLEIKRTVAAPSVFIFPPSDEQLKSGTASVVCLLNNFYPREAKVQWKVDNALQSGNSQESVTEQDSKDSTYSLSSTLTLSKADYEKHKVYACEVTHQGLSSPVTKSFNRGEC
- Kd [1]: 54 nM
- Masking Efficiency [2]: 30

B7: PD-1 1.5 PD020 2001 (antibody, human IgG4 S228P, kappa)
heavy: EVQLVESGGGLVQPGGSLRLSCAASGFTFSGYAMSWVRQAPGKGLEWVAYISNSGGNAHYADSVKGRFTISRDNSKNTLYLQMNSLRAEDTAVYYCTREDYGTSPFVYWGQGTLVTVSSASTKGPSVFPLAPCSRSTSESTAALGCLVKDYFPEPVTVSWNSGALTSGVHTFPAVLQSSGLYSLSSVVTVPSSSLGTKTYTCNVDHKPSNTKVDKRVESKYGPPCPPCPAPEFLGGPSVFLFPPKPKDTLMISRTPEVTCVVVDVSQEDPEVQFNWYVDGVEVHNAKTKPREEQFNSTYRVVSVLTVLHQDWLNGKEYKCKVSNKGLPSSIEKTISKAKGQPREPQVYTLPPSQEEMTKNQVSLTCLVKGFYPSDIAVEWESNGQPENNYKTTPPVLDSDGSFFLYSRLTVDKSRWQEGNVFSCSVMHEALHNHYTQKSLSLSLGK
light: QGQSGQGSVCPMYALSSMLCGAGGGSSGGSISSGLLSGRSDNHGGGSDIQLTQSPSSLSASVGDRVTITCRASESVDAYGISFMNWFQQKPGKAPKLLIYAASNQGSGVPSRFSGSGSGTDFTLTISSMQPEDFATYYCQQSKDVPWTFGQGTKLEIKRTVAAPSVFIFPPSDEQLKSGTASVVCLLNNFYPREAKVQWKVDNALQSGNSQESVTEQDSKDSTYSLSSTLTLSKADYEKHKVYACEVTHQGLSSPVTKSFNRGEC
- Kd [1]: 77 nM
- Masking Efficiency [2]: 43

B12: PD-1 1.5 PD008 2001 (antibody, human IgG4 S228P, kappa)
heavy: not shown
light: QGQSGQGETCNQYERSSGLCFAGGGSSGGSISSGLLSGRSDNHGGGSDIQLTQSPSSLSASVGDRVTITCRASESVDAYGISFMNWFQQKPGKAPKLLIYAASNQGSGVPSRFSGSGSGTDFTLTISSMQPEDFATYYCQQSKDVPWTFGQGTKLEIKRTVAAPSVFIFPPSDEQLKSGTASVVCLLNNFYPREAKVQWKVDNALQSGNSQESVTEQDSKDSTYSLSSTLTLSKADYEKHKVYACEVTHQGLSSPVTKSFNRGEC
- Kd [1]: 55 nM
- Masking Efficiency [2]: 31

B13: PD-1 1.5 PD023 2001 (antibody, human IgG4 S228P, kappa)
heavy: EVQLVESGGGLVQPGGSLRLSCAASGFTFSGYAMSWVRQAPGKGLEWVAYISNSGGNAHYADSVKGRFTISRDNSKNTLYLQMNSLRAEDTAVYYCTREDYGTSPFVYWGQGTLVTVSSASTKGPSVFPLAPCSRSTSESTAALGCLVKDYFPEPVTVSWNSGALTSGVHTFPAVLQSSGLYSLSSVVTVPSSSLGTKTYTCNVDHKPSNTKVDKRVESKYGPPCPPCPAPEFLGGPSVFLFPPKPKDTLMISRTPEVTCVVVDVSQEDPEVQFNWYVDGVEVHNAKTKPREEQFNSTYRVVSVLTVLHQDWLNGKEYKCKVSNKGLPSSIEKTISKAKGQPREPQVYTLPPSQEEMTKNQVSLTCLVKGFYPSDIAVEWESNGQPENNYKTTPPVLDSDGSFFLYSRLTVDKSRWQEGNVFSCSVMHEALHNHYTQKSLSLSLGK
light: QGQSGQGSMAGCQWSSFCVQRDGGGSSGGSISSGLLSGRSDNHGGGSDIQLTQSPSSLSASVGDRVTITCRASESVDAYGISFMNWFQQKPGKAPKLLIYAASNQGSGVPSRFSGSGSGTDFTLTISSMQPEDFATYYCQQSKDVPWTFGQGTKLEIKRTVAAPSVFIFPPSDEQLKSGTASVVCLLNNFYPREAKVQWKVDNALQSGNSQESVTEQDSKDSTYSLSSTLTLSKADYEKHKVYACEVTHQGLSSPVTKSFNRGEC
- Kd [1]: 31 nM
- Masking Efficiency [2]: 17

B16: PD-1 1.5 PD018 2001 (antibody, human IgG4 S228P, kappa)
heavy: not shown
light: QGQSGQGAPRCYMFASYCKSQYGGGSSGGSISSGLLSGRSDNHGGGSDIQLTQSPSSLSASVGDRVTITCRASESVDAYGISFMNWFQQKPGKAPKLLIYAASNQGSGVPSRFSGSGSGTDFTLTISSMQPEDFATYYCQQSKDVPWTFGQGTKLEIKRTVAAPSVFIFPPSDEQLKSGTASVVCLLNNFYPREAKVQWKVDNALQSGNSQESVTEQDSKDSTYSLSSTLTLSKADYEKHKVYACEVTHQGLSSPVTKSFNRGEC
- Kd [1]: 75 nM
- Masking Efficiency [2]: 42

B17: masking moiety MP001 (peptide)
peptide: DYTYCRWVNWCLSGV
notes: bacterial display clone; also called MP01; MP-01
- binding result [3]: binds

Continued by falling Kd [1], values first:

- Kd [1]: 151 nM
- Masking Efficiency [2]: 84
B10: PD-1 1.5 PD013 2001 (antibody, human IgG4 S228P, kappa)
heavy: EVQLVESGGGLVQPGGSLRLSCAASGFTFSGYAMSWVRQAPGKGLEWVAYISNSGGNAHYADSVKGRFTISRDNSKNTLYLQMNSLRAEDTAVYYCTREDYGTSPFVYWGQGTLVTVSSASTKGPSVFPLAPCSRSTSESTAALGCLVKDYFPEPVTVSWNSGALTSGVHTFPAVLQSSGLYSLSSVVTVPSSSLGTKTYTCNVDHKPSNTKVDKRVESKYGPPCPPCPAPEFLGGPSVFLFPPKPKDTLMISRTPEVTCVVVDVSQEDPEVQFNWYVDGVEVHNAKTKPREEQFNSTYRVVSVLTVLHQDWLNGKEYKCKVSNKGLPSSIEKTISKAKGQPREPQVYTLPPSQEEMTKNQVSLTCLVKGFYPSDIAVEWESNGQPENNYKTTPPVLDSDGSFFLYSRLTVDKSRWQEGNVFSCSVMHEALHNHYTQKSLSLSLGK
light: QGQSGQGSCPLYVMSSFGGCWDGGGSSGGSISSGLLSGRSDNHGGGSDIQLTQSPSSLSASVGDRVTITCRASESVDAYGISFMNWFQQKPGKAPKLLIYAASNQGSGVPSRFSGSGSGTDFTLTISSMQPEDFATYYCQQSKDVPWTFGQGTKLEIKRTVAAPSVFIFPPSDEQLKSGTASVVCLLNNFYPREAKVQWKVDNALQSGNSQESVTEQDSKDSTYSLSSTLTLSKADYEKHKVYACEVTHQGLSSPVTKSFNRGEC

- Kd [1]: 117 nM
- Masking Efficiency [2]: 65
B2: PD-1 1.5 PD015 2001 (antibody, human IgG4 S228P, kappa)
heavy: not shown
light: QGQSGQGVSYCTWLIEVTCLRGGGGSSGGSISSGLLSGRSDNHGGGSDIQLTQSPSSLSASVGDRVTITCRASESVDAYGISFMNWFQQKPGKAPKLLIYAASNQGSGVPSRFSGSGSGTDFTLTISSMQPEDFATYYCQQSKDVPWTFGQGTKLEIKRTVAAPSVFIFPPSDEQLKSGTASVVCLLNNFYPREAKVQWKVDNALQSGNSQESVTEQDSKDSTYSLSSTLTLSKADYEKHKVYACEVTHQGLSSPVTKSFNRGEC

- Kd [1]: 109 nM
- Masking Efficiency [2]: 61
B11: PD-1 1.5 PD003 2001 (antibody, human IgG4 S228P, kappa)
heavy: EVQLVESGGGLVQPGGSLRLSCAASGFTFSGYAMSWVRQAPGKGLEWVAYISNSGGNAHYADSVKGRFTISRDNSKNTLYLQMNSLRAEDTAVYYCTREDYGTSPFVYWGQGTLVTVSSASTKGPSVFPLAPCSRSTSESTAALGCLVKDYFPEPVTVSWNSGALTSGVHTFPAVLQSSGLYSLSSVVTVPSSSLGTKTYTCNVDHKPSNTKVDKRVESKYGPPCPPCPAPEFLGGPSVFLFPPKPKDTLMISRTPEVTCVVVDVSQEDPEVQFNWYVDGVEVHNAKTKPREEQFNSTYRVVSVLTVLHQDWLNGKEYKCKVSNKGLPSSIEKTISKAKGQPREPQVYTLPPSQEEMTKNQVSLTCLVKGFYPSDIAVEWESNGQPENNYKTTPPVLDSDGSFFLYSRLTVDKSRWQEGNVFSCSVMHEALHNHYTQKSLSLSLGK
light: QGQSGQGLVCPLYALSSGVCMGGGGSSGGSISSGLLSGRSDNHGGGSDIQLTQSPSSLSASVGDRVTITCRASESVDAYGISFMNWFQQKPGKAPKLLIYAASNQGSGVPSRFSGSGSGTDFTLTISSMQPEDFATYYCQQSKDVPWTFGQGTKLEIKRTVAAPSVFIFPPSDEQLKSGTASVVCLLNNFYPREAKVQWKVDNALQSGNSQESVTEQDSKDSTYSLSSTLTLSKADYEKHKVYACEVTHQGLSSPVTKSFNRGEC

- Kd [1]: 100 nM
- Masking Efficiency [2]: 56
B9: PD-1 1.5 PD014 2001 (antibody, human IgG4 S228P, kappa)
heavy: not shown
light: QGQSGQGMSHCWMFSSSCDGVKGGGSSGGSISSGLLSGRSDNHGGGSDIQLTQSPSSLSASVGDRVTITCRASESVDAYGISFMNWFQQKPGKAPKLLIYAASNQGSGVPSRFSGSGSGTDFTLTISSMQPEDFATYYCQQSKDVPWTFGQGTKLEIKRTVAAPSVFIFPPSDEQLKSGTASVVCLLNNFYPREAKVQWKVDNALQSGNSQESVTEQDSKDSTYSLSSTLTLSKADYEKHKVYACEVTHQGLSSPVTKSFNRGEC

- Kd [1]: 92 nM
- Masking Efficiency [2]: 51
B15: PD-1 1.5 PD024 2001 (antibody, human IgG4 S228P, kappa)
heavy: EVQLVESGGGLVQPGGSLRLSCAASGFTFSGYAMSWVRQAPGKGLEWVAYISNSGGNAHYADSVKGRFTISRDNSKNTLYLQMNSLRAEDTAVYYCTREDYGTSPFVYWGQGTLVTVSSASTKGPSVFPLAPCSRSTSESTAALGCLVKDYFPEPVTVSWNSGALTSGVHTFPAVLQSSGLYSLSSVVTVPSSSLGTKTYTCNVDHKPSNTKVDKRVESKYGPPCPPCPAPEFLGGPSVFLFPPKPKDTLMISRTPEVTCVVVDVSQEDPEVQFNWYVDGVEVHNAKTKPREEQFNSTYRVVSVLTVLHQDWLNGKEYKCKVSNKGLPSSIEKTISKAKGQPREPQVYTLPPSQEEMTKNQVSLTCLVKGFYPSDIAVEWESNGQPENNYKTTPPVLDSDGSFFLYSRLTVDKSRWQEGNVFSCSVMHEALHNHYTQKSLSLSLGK
light: QGQSGQGIYSCYMFASRCTSDKGGGSSGGSISSGLLSGRSDNHGGGSDIQLTQSPSSLSASVGDRVTITCRASESVDAYGISFMNWFQQKPGKAPKLLIYAASNQGSGVPSRFSGSGSGTDFTLTISSMQPEDFATYYCQQSKDVPWTFGQGTKLEIKRTVAAPSVFIFPPSDEQLKSGTASVVCLLNNFYPREAKVQWKVDNALQSGNSQESVTEQDSKDSTYSLSSTLTLSKADYEKHKVYACEVTHQGLSSPVTKSFNRGEC

- Kd [1]: 67 nM
- Masking Efficiency [2]: 37
B4: PD-1 1.5 PD011 2001 (antibody, human IgG4 S228P, kappa)
heavy: not shown
light: QGQSGQGVPWCQLTPRVMCMWAGGGSSGGSISSGLLSGRSDNHGGGSDIQLTQSPSSLSASVGDRVTITCRASESVDAYGISFMNWFQQKPGKAPKLLIYAASNQGSGVPSRFSGSGSGTDFTLTISSMQPEDFATYYCQQSKDVPWTFGQGTKLEIKRTVAAPSVFIFPPSDEQLKSGTASVVCLLNNFYPREAKVQWKVDNALQSGNSQESVTEQDSKDSTYSLSSTLTLSKADYEKHKVYACEVTHQGLSSPVTKSFNRGEC

- Kd [1]: 57 nM
- Masking Efficiency [2]: 32
B8: PD-1 1.5 PD016 2001 (antibody, human IgG4 S228P, kappa)
heavy: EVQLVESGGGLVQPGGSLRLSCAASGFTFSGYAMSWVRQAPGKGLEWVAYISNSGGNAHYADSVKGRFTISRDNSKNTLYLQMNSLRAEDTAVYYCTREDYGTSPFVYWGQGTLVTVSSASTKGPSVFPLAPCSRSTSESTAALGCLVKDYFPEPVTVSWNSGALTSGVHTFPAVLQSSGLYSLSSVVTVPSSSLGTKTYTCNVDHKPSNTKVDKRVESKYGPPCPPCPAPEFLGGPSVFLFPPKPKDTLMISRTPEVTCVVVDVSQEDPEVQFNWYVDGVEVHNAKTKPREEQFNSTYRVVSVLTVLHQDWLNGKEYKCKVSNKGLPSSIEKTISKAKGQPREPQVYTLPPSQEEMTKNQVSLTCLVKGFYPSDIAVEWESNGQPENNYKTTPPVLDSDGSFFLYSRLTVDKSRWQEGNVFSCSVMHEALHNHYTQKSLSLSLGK
light: QGQSGQGVLCAAYALSSGICGGGGGSSGGSISSGLLSGRSDNHGGGSDIQLTQSPSSLSASVGDRVTITCRASESVDAYGISFMNWFQQKPGKAPKLLIYAASNQGSGVPSRFSGSGSGTDFTLTISSMQPEDFATYYCQQSKDVPWTFGQGTKLEIKRTVAAPSVFIFPPSDEQLKSGTASVVCLLNNFYPREAKVQWKVDNALQSGNSQESVTEQDSKDSTYSLSSTLTLSKADYEKHKVYACEVTHQGLSSPVTKSFNRGEC

- Kd [1]: 49 nM
- Masking Efficiency [2]: 27
B19: PD-1 1.5 PD021 2001 (antibody, human IgG4 S228P, kappa)
heavy: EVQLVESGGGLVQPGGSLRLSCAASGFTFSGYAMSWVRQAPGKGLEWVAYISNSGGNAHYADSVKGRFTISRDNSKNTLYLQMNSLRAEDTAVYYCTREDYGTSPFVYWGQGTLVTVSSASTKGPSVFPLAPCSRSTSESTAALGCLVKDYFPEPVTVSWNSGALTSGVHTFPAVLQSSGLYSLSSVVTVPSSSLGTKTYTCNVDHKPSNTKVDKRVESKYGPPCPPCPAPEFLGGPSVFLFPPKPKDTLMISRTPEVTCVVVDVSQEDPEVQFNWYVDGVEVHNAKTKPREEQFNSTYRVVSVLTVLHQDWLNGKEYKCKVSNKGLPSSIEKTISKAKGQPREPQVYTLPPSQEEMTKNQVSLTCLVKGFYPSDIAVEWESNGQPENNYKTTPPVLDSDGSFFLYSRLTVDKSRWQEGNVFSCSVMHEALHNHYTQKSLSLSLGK
light: QGQSGQGLSVECYVFSRCSSLPGGGSSGGSISSGLLSGRSDNHGGGSDIQLTQSPSSLSASVGDRVTITCRASESVDAYGISFMNWFQQKPGKAPKLLIYAASNQGSGVPSRFSGSGSGTDFTLTISSMQPEDFATYYCQQSKDVPWTFGQGTKLEIKRTVAAPSVFIFPPSDEQLKSGTASVVCLLNNFYPREAKVQWKVDNALQSGNSQESVTEQDSKDSTYSLSSTLTLSKADYEKHKVYACEVTHQGLSSPVTKSFNRGEC

- Kd [1]: 21 nM
- Masking Efficiency [2]: 12
B14: PD-1 1.5 PD002 2001 (antibody, human IgG4 S228P, kappa)
heavy: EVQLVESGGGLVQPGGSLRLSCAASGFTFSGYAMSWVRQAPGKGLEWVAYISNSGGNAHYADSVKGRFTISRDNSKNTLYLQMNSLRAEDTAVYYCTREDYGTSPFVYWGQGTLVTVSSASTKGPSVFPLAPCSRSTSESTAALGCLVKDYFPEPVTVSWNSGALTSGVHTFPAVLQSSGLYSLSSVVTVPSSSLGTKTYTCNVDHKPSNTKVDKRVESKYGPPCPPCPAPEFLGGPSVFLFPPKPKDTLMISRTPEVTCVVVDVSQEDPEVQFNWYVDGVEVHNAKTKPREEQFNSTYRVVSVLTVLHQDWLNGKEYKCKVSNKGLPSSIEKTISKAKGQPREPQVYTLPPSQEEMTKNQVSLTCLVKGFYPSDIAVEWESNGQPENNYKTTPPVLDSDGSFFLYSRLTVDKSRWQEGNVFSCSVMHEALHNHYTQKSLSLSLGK
light: QGQSGQGDVNCAIWYSVCTTVPGGGSSGGSISSGLLSGRSDNHGGGSDIQLTQSPSSLSASVGDRVTITCRASESVDAYGISFMNWFQQKPGKAPKLLIYAASNQGSGVPSRFSGSGSGTDFTLTISSMQPEDFATYYCQQSKDVPWTFGQGTKLEIKRTVAAPSVFIFPPSDEQLKSGTASVVCLLNNFYPREAKVQWKVDNALQSGNSQESVTEQDSKDSTYSLSSTLTLSKADYEKHKVYACEVTHQGLSSPVTKSFNRGEC

- Kd [1]: 1.8 nM
B18: A1.5 (antibody, human IgG4 S228P, kappa)
heavy: not shown
light: DIQLTQSPSSLSASVGDRVTITCRASESVDAYGISFMNWFQQKPGKAPKLLIYAASNQGSGVPSRFSGSGSGTDFTLTISSMQPEDFATYYCQQSKDVPWTFGQGTKLEIKRTVAAPSVFIFPPSDEQLKSGTASVVCLLNNFYPREAKVQWKVDNALQSGNSQESVTEQDSKDSTYSLSSTLTLSKADYEKHKVYACEVTHQGLSSPVTKSFNRGEC
notes: humanized, full length hIgG4/hKappa; also called A1.5 Ab

Source: patent US20170044259A1 (CYTOMX THERAPEUTICS, published 2017)
